The text below walks through data of patent US20040166530A1 (BAYLOR COLLEGE OF MEDICINE, published 2004).

The target in test [1] is phosphorylated IκB peptide (residues 21-41, phosphorylated on Ser-32 and Ser-36). Kind of test: HeLa lysate on IκB peptide beads, anti-Skp1 immunoblot (FIG. 8).
Test [2] deals with Cdc4/Skp1^F complex (S. cerevisiae) (UniProt P52286). Kind of test: binding of 32P-labeled Cln kinase complexes to anti-Skp1^F immune complexes, autoradiography (FIG. 5A).
The target in test [3] is T1, Grr1/Skp1^F/Cdc53 complex (S. cerevisiae, UniProt P24814 1-1151; P52286 1-194; Q12018 1-815).
T1 construct: also called Cdc53/Skp1/Grr1 complex; Grr1/Skp1/Cdc53 complex; not shown: N-terminal His6-G10 (T7 gene 10) tag; N-terminal Flag tag; N-terminal Myc tag
T1 sequence (P24814 whole entry, chain 1 of 2): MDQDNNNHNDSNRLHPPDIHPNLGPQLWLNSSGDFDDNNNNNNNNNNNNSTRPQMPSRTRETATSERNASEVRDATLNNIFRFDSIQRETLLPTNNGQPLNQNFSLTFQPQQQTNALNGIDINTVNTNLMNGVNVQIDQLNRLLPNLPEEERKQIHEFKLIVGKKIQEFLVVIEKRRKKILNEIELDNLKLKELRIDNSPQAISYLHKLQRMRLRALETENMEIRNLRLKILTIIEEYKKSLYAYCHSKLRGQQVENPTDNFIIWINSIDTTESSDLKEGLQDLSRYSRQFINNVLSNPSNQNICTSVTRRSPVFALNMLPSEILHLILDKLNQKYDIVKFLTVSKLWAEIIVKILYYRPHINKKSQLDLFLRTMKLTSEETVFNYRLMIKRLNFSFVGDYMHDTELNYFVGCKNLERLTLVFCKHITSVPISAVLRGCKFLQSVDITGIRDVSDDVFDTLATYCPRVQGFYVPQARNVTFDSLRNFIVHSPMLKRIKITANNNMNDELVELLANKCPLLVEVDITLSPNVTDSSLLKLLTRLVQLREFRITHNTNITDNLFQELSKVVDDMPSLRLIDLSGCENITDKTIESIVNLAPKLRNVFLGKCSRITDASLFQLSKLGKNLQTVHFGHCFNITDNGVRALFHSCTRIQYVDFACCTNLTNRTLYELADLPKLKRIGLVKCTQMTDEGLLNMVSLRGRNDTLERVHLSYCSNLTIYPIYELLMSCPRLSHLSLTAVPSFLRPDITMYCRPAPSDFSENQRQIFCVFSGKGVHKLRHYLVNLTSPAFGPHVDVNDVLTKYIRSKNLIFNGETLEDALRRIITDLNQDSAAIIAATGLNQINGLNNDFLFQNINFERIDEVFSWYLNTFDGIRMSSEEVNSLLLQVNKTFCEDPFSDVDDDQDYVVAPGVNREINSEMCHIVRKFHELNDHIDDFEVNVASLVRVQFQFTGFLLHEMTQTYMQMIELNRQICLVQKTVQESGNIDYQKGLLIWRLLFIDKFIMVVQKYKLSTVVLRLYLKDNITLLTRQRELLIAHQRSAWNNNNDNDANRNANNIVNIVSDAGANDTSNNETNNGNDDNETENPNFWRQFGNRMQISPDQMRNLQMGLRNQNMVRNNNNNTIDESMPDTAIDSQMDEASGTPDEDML
T1 sequence (P52286 whole entry, chain 2 of 2): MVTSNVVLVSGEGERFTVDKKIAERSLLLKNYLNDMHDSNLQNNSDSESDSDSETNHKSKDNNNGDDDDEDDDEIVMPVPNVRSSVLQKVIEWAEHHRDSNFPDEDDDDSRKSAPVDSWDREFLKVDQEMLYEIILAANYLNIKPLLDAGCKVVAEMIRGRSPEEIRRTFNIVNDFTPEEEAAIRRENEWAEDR
Described as above.

Test [4] concerns the target T2, Myc-tagged Cdc53 (Cdc53^M) (S. cerevisiae, UniProt Q12018 1-815).
T2 construct: Expressed from baculovirus in insect cells; not shown: N-terminal Myc tag
T2 sequence (looked up): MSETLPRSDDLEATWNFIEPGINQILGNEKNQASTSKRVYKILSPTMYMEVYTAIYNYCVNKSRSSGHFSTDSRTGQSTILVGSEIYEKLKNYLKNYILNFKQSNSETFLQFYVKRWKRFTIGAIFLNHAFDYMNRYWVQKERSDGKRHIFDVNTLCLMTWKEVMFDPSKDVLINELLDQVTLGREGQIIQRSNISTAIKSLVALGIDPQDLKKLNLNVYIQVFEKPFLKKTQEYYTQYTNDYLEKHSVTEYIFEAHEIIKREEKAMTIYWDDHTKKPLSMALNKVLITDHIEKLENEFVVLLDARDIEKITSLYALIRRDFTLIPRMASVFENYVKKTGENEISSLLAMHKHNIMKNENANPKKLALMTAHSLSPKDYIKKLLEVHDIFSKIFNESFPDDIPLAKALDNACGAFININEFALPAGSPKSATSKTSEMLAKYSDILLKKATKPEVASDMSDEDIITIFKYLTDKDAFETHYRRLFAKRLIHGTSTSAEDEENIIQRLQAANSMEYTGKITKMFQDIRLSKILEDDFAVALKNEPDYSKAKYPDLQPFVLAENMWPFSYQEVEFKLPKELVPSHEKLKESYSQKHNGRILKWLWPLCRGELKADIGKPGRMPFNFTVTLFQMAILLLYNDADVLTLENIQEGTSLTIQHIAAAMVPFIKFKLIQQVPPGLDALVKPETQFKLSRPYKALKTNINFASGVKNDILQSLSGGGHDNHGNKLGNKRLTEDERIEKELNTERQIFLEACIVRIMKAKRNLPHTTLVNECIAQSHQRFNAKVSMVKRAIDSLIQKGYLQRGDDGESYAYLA
Kind of test: anti-Myc immunoprecipitation from co-infected insect cells, immunoblot (FIG. 1A). An excerpt: Insect cells were co-infected with various combinations of baculoviruses expressing Myc-tagged Cdc53 (Cdc53^M), Cdc34, Cdc4, and Skp1. Anti-Myc immune complexes from lysates of these infected cells were immunoblotted to identify associated proteins (See, FIG. 1A). […] Thus, one function of Skp1 is to facilitate association of Cdc53 with Cdc4. […] Furthermore, it appeared that Cdc53 can simultaneously associate with both Cdc34 and Skp1, as the association of Gst-Skp1 with Cdc34 is enhanced in the presence of Cdc53^M (See, FIG. 1C).
For recombinant protein expression and assembly of complexes, 4×10⁵ insect cells (Hi5, Invitrogen) were infected with the indicated virus combinations for 40 hours. These combinations included baculoviruses expressing Myc-tagged Cdc53 (Cdc53^M), Cdc34, Cdc4, and Skp1. Cells were then harvested and disrupted in lysis buffer (50 mM Tris-HCl (pH 7.5), 150 mM NaCl, 0.5% Nonidet P40, 10 mM NaF, 10 mM β-glycerol phosphate, 1 mM PMSF, and 5 μg/ml each leupeptin, antipain, and aprotinin). For isolation of protein complexes, typically about 3 ml of lysis buffer was used per 0.5×10⁸ cells.
To examine the assembly of recombinant yeast proteins, 0.4 ml lysate were typically derived from 2×10⁶ cells. […]

Test [5] concerns the target Flag-Cdc4 (Cdc4^F) (S. cerevisiae) (UniProt P07834). Kind of test: binding reaction with anti-Flag (Cdc4^F) immune complexes with increasing Skp1, immunoblot (FIG. 2D). Background: A western blot detects proteins with antibodies after separation by electrophoresis.
Test [6] addresses T1, Grr1/Skp1^F/Cdc53 complex. Kind of test: binding of 32P-labeled Sic1 complexes to anti-Skp1^F immune complexes, autoradiography (FIG. 4B). The protocol: These experiments were conducted as described above, with the exception being that Grr1 was substituted for Cdc4 (approximately 100 ng). Proteins were separated by SDS-PAGE, and blotted with anti-Skp1 anti-Myc to detect Grr1G10 and Cdc53^M, with anti-Skp1 antibodies.
In this Figure, lanes 2-5 contain anti-Skp1^F immune complexes derived from insect cells infected with the indicated baculovirus combinations were used for binding reactions with ³²P-labeled Sic1 complexes. Ten percent of the input Sic1 complex (lane 1) was included as a control. The presence of Cdc4, Skp1, Cdc53, and Grr1 was verified by immunoblotting.

In test [7] the target is T2, Myc-tagged Cdc53 (Cdc53^M). The test can be described thus: anti-Cdc53^M immune complexes from insect cells, immunoblot (FIG. 2C). How it is done: To examine the assembly of recombinant yeast proteins, 0.4 ml lysate were typically derived from 2×10⁶ cells. […] Immunopurification was performed by incubating the lysates at 4° C. for 2 hours with 4 μg of the anti-Myc or anti-G10 antibody and 8 μl of Protein A-Sepharose, or with 8 μl of immobilized anti-Flag antibodies (Kodak; See, Example 1). Immune complexes were washed three times with 1 ml of lysis butter prior to SDS-PAGE.
Associated proteins were then washed three times with 1 ml of lysis buffer prior to SDS-PAGE and immunoblotting, were performed as described above.
As shown in this Figure, phosphorylated Sic1 efficiently associates with Cdc53/Skp1/Cdc4 complexes, and this association is dependent upon the presence of Skp1 (See, FIG. 2C, lanes 6 and 8). Typically, 10-20% of the input phosphorylated Sic1 was bound at about 20 nM Sic1. […] Consistent with the results in FIG. 1, the level of Cdc4 found in immune complexes lacking Skp1 were >10-fold lower than that found in the presence of Skp1.

Sequence of Cdc4/Skp1^F complex (S. cerevisiae) (P52286 whole entry, one chain of several): as the sequence (P52286 whole entry, chain 2 of 2) above
Sequence of phosphorylated IκB peptide (residues 21-41, phosphorylated on Ser-32 and Ser-36) (peptide, as listed by the source): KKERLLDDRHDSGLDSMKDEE

The molecule “Skp1 (in HeLa cell lysates) (from UniProt P63208 2-163)” had a percent of the Skp1 in the extracts that can associate with IκB in test [1] of 1%.

B1: phosphorylated Cln1HA (protein, S. cerevisiae, UniProt P20437 1-546, looked up, not shown: small tags and cut ends)
chain: MNHSEVKTGLIVTAKQTYYPIELSNAELLTHYETIQEYHEEISQNVLVQSSKTKPDIKLIDQQPEMNPHQTREAIVTFLYQLSVMTRVSNGIFFHAVRFYDRYCSKRVVLKDQAKLVVGTCLWLAAKTWGGCNHIINNVSIPTGGRFYGPNPRARIPRLSELVHYCGGSDLFDESMFIQMERHILDTLNWDVYEPMINDYILNVDENCLIQYELYKNQLQNNNSNGKEWSCKRKSQSSDDSDATVEEHISSSPQSTGLDGDTTTMDEDEELNSKIKLINLKRFLIDLSCWQYNLLKFELYEICNGMFSIINKFTNQDQGPFLSMPIGNDINSNTQTQVFSIIINGIVNSPPSLVEVYKEQYGIVPFILQVKDYNLELQKKLQLASTIDLTRKIAVNSRYFDQNASSSSVSSPSTYSSGTNYTPMRNFSAQSDNSVFSTTNIDHSSPITPHMYTFNQFKNESACDSAISVSSLPNQTQNGNMPLSSNYQNMMLEERNKENRIPNSSSAEIPQRAKFMTTGIFQNTGELTNRASSISLSLRNHNSSQL
modifications: autophosphorylated in Cln1/Cdc28 complexes with ATP; sites not stated
For B1, the percent of the input associated (% of the input) was found to be 6 in test [2] and 40 in test [3].

B2: Cdc34 (enzyme, S. cerevisiae, UniProt P14682 1-295, looked up)
chain: MSSRKSTASSLLLRQYRELTDPKKAIPSFHIELEDDSNIFTWNIGVMVLNEDSIYHGGFFKAQMRFPEDFPFSPPQFRFTPAIYHPNVYRDGRLCISILHQSGDPMTDEPDAETWSPVQTVESVLISIVSLLEDPNINSPANVDAAVDYRKNPEQYKQRVKMEVERSKQDIPKGFIMPTSESAYISQSKLDEPESNKDMADNFWYDSDLDDDENGSVILQDDDYDDGNNHIPFEDDDVYNYNDNDDDDERIEFEDDDDDDDDSIDNDSVMDRKQPHKAEDESEDVEDVERVSKKI
notes: Untagged baculovirus form in the assembly experiments; also called E2 Cdc34
As for B2, the binding result in test [4] was “binds”.

B3: phosphorylated Cln2HA (protein, S. cerevisiae, UniProt P20438 1-545, looked up, not shown: small tags and cut ends)
chain: MASAEPRPRMGLVINAKPDYYPIELSNAELLSHFEMLQEYHQEISTNVIAQSCKFKPNPKLIDQQPEMNPVETRSNIITFLFELSVVTRVTNGIFFHSVRLYDRYCSKRIVLRDQAKLVVATCLWLAAKTWGGCNHIINNVVIPTGGRFYGPNPRARIPRLSELVHYCGDGQVFDESMFLQMERHILDTLNWNIYEPMINDYVLNVDENCLMQYELYENQVTYDKQCSEKRQSQLSQDSDATVDERPYQNEEEEEEDLKLKIKLINLKKFLIDVSAWQYDLLRYELFEVSHGIFSIINQFTNQDHGPFLMTPMTSESKNGEILSTLMNGIVSIPNSLMEVYKTVNGVLPFINQVKEYHLDLQRKLQIASNLNISRKLTISTPSCSFENSNSTSIPSPASSSQSHTPMRNMSSLSDNSVFSRNMEQSSPITPSMYQFGQQQSNSICGSTVSVNSLVNTNNKQRIYEQITGPNSNNATNDYIDLLNLNESNKENQNPATAHYLNGGPPKTSFINHGMFPSPTGTINSGKSSSASSLISFGMGNTQVI
modifications: autophosphorylated in Cln2/Cdc28 complexes with ATP; sites not stated
In the case of B3, the values for the percent of the input associated (% of the input) in test [2] and in test [3] were 6 and 40, respectively.

B4: phosphorylated Sic1 (other, S. cerevisiae, UniProt P38634 1-284, looked up)
chain: MTPSTPPRSRGTRYLAQPSGNTSSSALMQGQKTPQKPSQNLVPVTPSTTKSFKNAPLLAPPNSNMGMTSPFNGLTSPQRSPFPKSSVKRTLFQFESHDNGTVREEQEPLGRVNRILFPTQQNVDIDAAEEEEEGEVLLPPSRPTSARQLHLSLERDEFDQTHRKKIIKDVPGTPSDKVITFELAKNWNNNSPKNDARSQESEDEEDIIINPVRVGKNPFASDELVTQEIRNERKRAMLRENPDIEDVITYVNKKGEVVEKRRLTDEEKRRFKPKALFQSRDQEH
modifications: phosphorylated in vitro by Gst-Cdc28HA/Cln1HA/Cks1 with ATP; sites not stated
notes: also called Cln1/Cdc28-phosphorylated Sic1; phosphorylated Sic1 complexes
Molecule B4 had a fold stimulation by Skp1 of the association of Sic1 with Cdc4 in test [5] of 5 fold. The binding result in test [6] is listed as “no binding”.

B5: Cdc4 (other, S. cerevisiae, UniProt P07834 1-779, looked up)
chain: MGSFPLAEFPLRDIPVPYSYRVSGGIASSGSVTALVTAAGTHRNSSTAKTVETEDGEEDIDEYQRKRAAGSGESTPERSDFKRVKHDNHKTLHPVNLQNTGAASVDNDGLHNLTDISNDAEKLLMSVDDGSAAPSTLSVNMGVASHNVAAPTTVNAATITGSDVSNNVNSATINNPMEEGALPLSPTASSPGTTTPLAKTTKTINNNNNIADLIESKDSIISPEYLSDEIFSAINNNLPHAYFKNLLFRLVANMDRSELSDLGTLIKDNLKRDLITSLPFEISLKIFNYLQFEDIINSLGVSQNWNKIIRKSTSLWKKLLISENFVSPKGFNSLNLKLSQKYPKLSQQDRLRLSFLENIFILKNWYNPKFVPQRTTLRGHMTSVITCLQFEDNYVITGADDKMIRVYDSINKKFLLQLSGHDGGVWALKYAHGGILVSGSTDRTVRVWDIKKGCCTHVFKGHNSTVRCLDIVEYKNIKYIVTGSRDNTLHVWKLPKESSVPDHGEEHDYPLVFHTPEENPYFVGVLRGHMASVRTVSGHGNIVVSGSYDNTLIVWDVAQMKCLYILSGHTDRIYSTIYDHERKRCISASMDTTIRIWDLENIWNNGECSYATNSASPCAKILGAMYTLQGHTALVGLLRLSDKFLVSAAADGSIRGWDANDYSRKFSYHHTNLSAITTFYVSDNILVSGSENQFNIYNLRSGKLVHANILKDADQIWSVNFKGKTLVAAVEKDGQSFLEILDFSKASKINYVSNPVNSSSSSLESISTSLGLTRTTIIP
notes: Untagged, expressed from baculovirus in insect cells
Consider B5, for which, in test [7], the “fold lower level of Cdc4 in immune complexes lacking Skp1 than in the presence of Skp1” value is > 10 fold.
